Consider 8 molecules from patent US20180334496A1 (KODIAK SCIENCES, published 2018).

The target of this experiment is T1, human Complement Factor D (CFD), purified from human serum (human, UniProt P00746 26-253).
T1 construct: serum purified (CompTech A136); also called serum purified CFD; hCFD-Comptech
The experiment in a line: SPR MX96, mAbs amine-coupled, CFD injected.

One may read the Kd as the constant that tells how readily two partners part at equilibrium.

T1 sequence (P00746 26-253): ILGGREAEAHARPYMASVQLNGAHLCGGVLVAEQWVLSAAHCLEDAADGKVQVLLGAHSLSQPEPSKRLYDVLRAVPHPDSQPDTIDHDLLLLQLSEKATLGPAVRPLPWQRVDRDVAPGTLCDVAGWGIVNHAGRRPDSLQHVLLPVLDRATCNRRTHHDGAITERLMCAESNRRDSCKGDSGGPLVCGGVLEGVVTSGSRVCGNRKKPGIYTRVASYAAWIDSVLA

B1: KCD058 (antibody, V domains shown)
VH: EVKLVESGGDLVQPGGSLKLSCAASGFTFSRYIMSWVRLTPEKRLEWVAFITNGGGNTYHPDTVKGRFTISRDNANNTLYLQMSSLKSEDTAIYYCARHDYYALDYWGQGTSVTVSS
VL: DIQMTQSPSSLSASLGGKVTITCKASQDINKYIAWYQHKPGKGPRLLIHYTSTLQPGIPSRFSGSGSGRDYSFSISNLEPEDIATYYCLQYDNLLYTFGGGTKLEIK
Molecule B1 had a Kd of 9.91 nM.

B2: KCD062 (antibody, V domains shown)
VH: EVKLVESGGGLVQPGGSLKLSCAASGFTFSTYIMSWVRQTPEKRLEWVAYITSGGSSTYYPDTVKGRFTISRDNAKSTLYLQMSSLKSEDTAMYYCARHAHFYAMDYWGQGTSVTVSS
VL: DIQMTQSPSSLSASLGGKVTITCKASQDINKYIAWYQHKPGKGPRLLIHYTSTLQPGIPSRFSGSGSGRDYSFSISNLEPEDIATYYCLQYDNLLYTFGGGTKLEIK
Take B2: the dissociation constant (Kd) stood at 24 nM.

B3: KCD064 (antibody, V domains shown)
VH: EVKLVESGGGLVQPGGSLKLSCAASGFTFSSYIMSWVRQTPEKRLGWVAYITSGGGSTYYPDTVKGRFTISRDNAKNTLYLQMSSLKSEDTAMYYCARHGTGYAMDYWGQGTSVTVSS
VL: DIQMTQSPSSLSASLGGKVTITCKASQDINKYIAWYQHKPGKGPRLLIHYTSTLQPGIPSRFSGSGSGRDYSFSISNLEPEDIATYYCLQYDNLLYTFGGGTELEIK
Molecule B3 came in with a Kd of 20.3 nM. This Kd and that of the molecule before are within 1.5-fold of each other.

B4: KCD063 (antibody, V domains shown)
VH: EVKLVESGGGLVQPGGSLKLSCAASGFIFSSYIMSWVRQTPEKRLEWVAYITNGGGSTYYPDTVKGRLTISRDNAKNTLYLQMSSLKSEDTAMYYCVRHAHYYAMDYWGQGTSVTVSS
VL: DIQMTQSPSSLSASLGGKVTITCKASQDINKYITWYQHKPGKGPRLLIHYTSTLQPGIPSRFSGSGSGRDYSFSISNLEPEDIATYYCLQYDNLLYTFGGGTKLEIK
B4 yielded a Kd of 33.3 nM.

B5: KCD077 (antibody, V domains shown)
VH: EVQLQQSGAELVRPGALVKLSCKASGFNIKDYYMHWVKQRPEQGLEWIGWIDPENGHTIYDPRFQGKATITADTSSNTAYLQLSSLTSEDTAVYYCSRGLLGFAYWGQGTLVTVSA
VL: DIVMTQSQKFMSTSVGDRVSVTCKASQNVGTNVAWYQQKPGQSPKALIYTASYRYSGVPDRFTGSGSGTDFTLTISNVQSEDLAEYFCQQYNSYPHMYTFGGGTKLEIK
Molecule B5 displayed a Kd of 16.9 nM.

B6: KCD102 (antibody, V domains shown)
VH: QVQLQQPGAELVRPGTSVKLSCKASGYTFTSYWMHWVKQRPGQGLEWIGVIDPSDSYTNYNQKFKGKATLTVDTSSSTAYMQLSSLTSEDSAVYYCARNGYDGSMDYWGQGTSVTVSS
VL: EIQMTQTTSSLSASLGDRVTISCRASQDISNYLNWYQQKPDGTVKLLIYYPSRLHSGVPSRFSGSGSGTDYSLTISNLEQEDFATYFCQQGNTLPYTFGGGTKLEIK
The molecule B6 registered a Kd of 3.56 nM. This Kd lies about 4.7-fold lower than the previous one.

B7: KCD103 (antibody, V domains shown)
VH: QVQLQQPGAELVRPGTSVKLSCKASGYTFTSYWMHWVKQRPGQGLEWIGVIDPSDSYTKYNQKFKDKATLTVETSSSTAYMQLSSLTSEDSAVYYCAGNGYDGSMDYWGQGTSVTVSS
VL: DIQMTQTTSSLSASLGDRVTISCRASQDISNSLNWYQQKPDGTVKLLIYYTSRLHSRVPSRFSGSGSGTDYSLTISNLDQEDIATYFCQQANTLPYTFGGGTKLEIK
With B7, the Kd was 4.37 nM.

B8: KCD101 (antibody, V domains shown)
VH: QVQLQQPGAELVRPGTSVKLSCKASGYTFTSYWMHWVKQRPGQGLEWIGVIDPSDSYTNYNQKFKGKATLTVDTSSSTAYMQLSSLTSEDSAVYYCGRNGYDGSMDYWGQGTSVTVSS
VL: DIQMTQTTSSLSASLGDRVTISCRASQDISNYLNWYQQKPDGTVKLLIYYPSRLHSGVPSRFSGSGSGTDYSLTISNLEQEDFATYFCQQGNTLPYTFGGGTKLEIK
On to B8, for which the Kd was determined as 3.78 nM.
